A short description of this series: yeast display, Sf9 membrane polyspecificity reagent, FACS + sequencing; frameworks hold sequencing errors. In a few lines: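 Synthetic nanobody libraries on Saccharomyces cerevisiae BJ5465 were galactose-induced for 36–48 hours, stained 1 hour at 4 °C with 10% biotinylated, detergent-solubilized Sf9 membrane reagent and enriched on streptavidin microbeads. FACS then separated cells into low and high (top ~1%) gates by anti-HA (expression) and streptavidin (reagent binding) fluorescence. Genes were colony-PCR amplified, MiSeq 2 × 250 sequenced and CDR-length filtered. A clone's polyreactivity label is that of its gate of origin.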
“QVQLVESGGGLVQARGSLRLSCAASGYIFAVYAMGWYRQANGKERELVAAITWSGGRTYYADSVKGRFTISLDNAKNTVYLQMNSLKPEDTAVYYCNARARSRKFYYWGQGTQVTVSS”: the “polyreactivity (PSR sort gate)” value is recorded as “high polyreactivity”.

Consider “QVQLVESGGGLVQARGSLRLSCAASVIIFRLYGRGWYRQAPGKEREFVATITWRGGRTNYADSVKGRFTISRDNAKNTVYLQMNSLKPEDTAVYYCAKVVRYARSNEYDSWGQGTQVTVSS”, for which the “polyreactivity (PSR sort gate)” value is “low polyreactivity”.

As to “QVQLVESGGGLVQARGSLRLSCAAYGLTLRGYAMGWYRQAPGKERELVAAISGSGTSTYYADSVKWRFTISRDNAKNTVYLQMNSLKPEDTAVYYCAAVKVRKGLEMGYWGQGTQVTVSS”, the “polyreactivity (PSR sort gate)” value is recorded as “high polyreactivity”.

On to “QVQLVESGGGLVQARGSLRLSCAGSGRTFGYYAMGWYRHAPGKERELVAAIDQSDTYYADSVKGRFTISRDNAKITVSLQMNSLKPEDTAVYYCAADGDPSIEDEYWGQGTQVTVSS”, for which the “polyreactivity (PSR sort gate)” value was “high polyreactivity”.

Take “QVQLVESGGGLVQARGSLRLSSAAYGRTLYSYAMGWYRQAPGKERELVATIRRSGGSTNYADSVKGRFTISRDNAKNTVYLQMNSLKPEDTAVYYCAAVSFKPEYYYWGQGTQVTVSS”: the “polyreactivity (PSR sort gate)” value is listed as “high polyreactivity”.

For “QVQLVESGGGLVQARGSLRLSSSASGSIFKYYAMGRYRHAPGKESELGAAISYSGGTTYYADSVKGRFTISRDNAKNTVYLQMNSLKPEDTAVYDCNARYPNFVVRGYAPYDYWGQGSQVTVSS”, the “polyreactivity (PSR sort gate)” value is reported as “low polyreactivity”.

Turning to “QVQLVESGGGLVQARGSLRLTCAASGNIFVSYAMGWYRPAPGKERELVAAISKRGGSTYYADSVKGRFTISRDNAKNTVDLQMISLKPEDTAVYYCAALGHVDDSIYDYWGQGTQVTVSS”, the “polyreactivity (PSR sort gate)” value was “high polyreactivity”.

Take “QVQLVESGGGLVQARGSLRLTWAASGRTFGINAMGWYRQAPGKERELVAVISGSGGNTYYADSVKGRFTISRDNAKNTVYLQMNSLKPEDTAVYYFATSYEKFRYDHGYWGQGTQVTVSS”: the “polyreactivity (PSR sort gate)” value was “low polyreactivity”.

For the sequence “QVQLVESGGGLVQARGSRRLSCAASGLTFVPTAMGWYRQAPGKEREFVAAISNNGGRKYYADSVKGRFTISRDNAKNRVYLQINSLKPDDTAVYYCAKYLSPGERHSYDYWGQGTQVTVSS”, the “polyreactivity (PSR sort gate)” value is “high polyreactivity”.

Regarding “QVQLVESGGGLVQARVSLRLSCAASGRIYGYTMGWYRQAPGKERELVAAITRNGGSTYYADSVKARFTISRDNSKNTVSLQMNSLKPEDNAVYYCAARNAFGTYYAWGQGTQVTVAS”, the “polyreactivity (PSR sort gate)” value is “high polyreactivity”.

For the sequence “QVQLVESGGGLVQARVSLRLSCAASGSIFNGYAMRWYRQAPGKESEFVAAISASGGGTYYADSVKGRFTISRDNAKNTVYLQMNSLKPEDTAVYYCNARYHPYYWGYRYDYWGQGTQVTVSS”, the “polyreactivity (PSR sort gate)” value was “low polyreactivity”.

As for “QVQLVESGGGLVQAVGILRLSCASYGRTFVANAMGWYIQAPGKERELVAGITCGDSTYYADSVKWRFTISRDNAKNTVYLQMNRLKPEDTAVYYCSAPYNFWNFFDLIYVWDGYDYWGQGTQVTVSS”, the “polyreactivity (PSR sort gate)” value is “low polyreactivity”.

On to “QVQLVESGGGLVQAVGRLRLSCAASGFTFPWYAMGWYRHAPGKERELVAAISTSGDSTYYADSVKGRFTISRDNAKNTVYLQMNSLKPADTAVYYCAARVVRGRYGYWGQGTQVTVSS”, for which the “polyreactivity (PSR sort gate)” value is given as “high polyreactivity”.

For the sequence “QVQLVESGGGLVQAVGRLRLSCAASGRILPLYAMGWYRQAPGKEREMVADITGSDGSTYYADSVKGRFSISRDNAKNTVYLQMNSLKPEDTAVYYCATDAIGRTPSDPWDYYYWGQGTQVTVSS”, the “polyreactivity (PSR sort gate)” value is listed as “low polyreactivity”.

Take “QVQLVESGGGLVQAVGSLRLSCAACGRILWYYTMGWYRQAPAKERELVAAISGRGSSTYYADSVKGRFTISRDNAKNTVYLQMNSLKPEDTAVYYCNAALRTRRGDYDYWGQGTQVTVSS”: the “polyreactivity (PSR sort gate)” value is recorded as “high polyreactivity”.

“QVQLVESGGGLVQAVGSLRLSCAASGFTFGRYAMGWYIQAPAKEREFVASISARGGNTFYADSVKGRFTISRDNAKNTVYLQMNSLKPEDTAVYYCNAYYLAEYDYWGQGTQVTVSS”: the “polyreactivity (PSR sort gate)” value was “high polyreactivity”.

On to “QVQLVESGGGLVQAVGSLRLSCAASGLTFYIYVMGCYRQAPGKERELVAAISGSGGSTYYADSVKGRFTISRDNAKNTVYLHLNSLKLEDTALYYCNAEDWWRYLRGEDDYWGQGTQVTVSS”, for which the “polyreactivity (PSR sort gate)” value is “high polyreactivity”.

With “QVQLVESGGGLVQAVGSLRLSCAASGRIFPYYAMGWYSQAPGKERELVAVFTIGGNSYYADSVKGRFTMSRDNAKNTVYLQMNSLKPEDTAVYYCAASAYSYYRFDYWGQGTQVTVSS”, the “polyreactivity (PSR sort gate)” value is “low polyreactivity”.

Turning to “QVQLVESGGGLVQAVGSLRLSCAASGRTFNLYAMGWYRQAPGKERELVAAITRRGGRTYYADSVKGRFTISRDNAKNTVYLQMNSLKPEDTAVYYCAARGYYGKFSGSGYWGQGTQVTVSS”, the “polyreactivity (PSR sort gate)” value is given as “high polyreactivity”.

Regarding “QVQLVESGGGLVQAVGSLRLSCAASGSILVTYMGWYRPAPGKEREVVAAISYTGGSTYYADSVKGRFTISRDNAKNSVYLQMNSLKPEDTEVFYCASFYLASETYYYFYWPKDSDDYCGQGTQVTVSS”, the “polyreactivity (PSR sort gate)” value is reported as “low polyreactivity”.

As for “QVQLVESGGGLVQAVGSLRLSCAASGSTFHWYDMGWYRQAPGKERELVPGINSSGDGTYYADSVKGRFTISRDNAKNTVYLQMNSLKPEDTAVYDCAAPWWYYGVPYQTNKYDYWGQGTQVTLSS”, the “polyreactivity (PSR sort gate)” value is “low polyreactivity”.

In the case of “QVQLVESGGGLVQAVGSLRLSCAASGSTFPRYAMRWYRQAPGKERELVAAISRSGGSTYYADSVKGRFTISRDNATNTVYLQMNSLKPEDTAVYYCAARDDRGSYKYDYWRQGTQVTVSS”, the “polyreactivity (PSR sort gate)” value is “high polyreactivity”.

On to “QVQLVESGGGLVQAVGSLRLSCAASGSTFPYYTMGWYRQAPGKERELVAAITASGGSTYYADSVKGRVTISRDNAKNTVYLQMNSLKPEDTAVYYCAATCLNHVRKSRGYDYWGQGTQVTVSS”, for which the “polyreactivity (PSR sort gate)” value is “high polyreactivity”.

“QVQLVESGGGLVQAVGSLRLSCAASGSTFYPYAMGWYRQSPGKERELVAAISISGGITYYADSVKVRFTISRDNAKNTVYLQMNSLKPEDTAVYYCAAEYLAVSGYWYDYWGQGTQVTVSS”: the “polyreactivity (PSR sort gate)” value is “high polyreactivity”.

With “QVQLVESGGGLVQAVGSLRLSCADSGTFPYYAMGRYRQAPWKERELVAAITRSGTRTYYADSVKGRFTISRDNAKNTGYLQMKSLKPEDTAVYYCAARQTGFSSQFRGYYSWGQGTQVTVSS”, the “polyreactivity (PSR sort gate)” value is given as “high polyreactivity”.

“QVQLVESGGGLVQAVGSLRLSSAASGSIFYVYAMGWYRQAPGKERELVAAMTNYADSVKGRFTISRDNAKNTVYLQMNSLKPEDTAVYYCAADWWRVEMDYWGQGTQVTVSS”: the “polyreactivity (PSR sort gate)” value is on record as “low polyreactivity”.

With “QVQLVESGGGLVQAVGSLRLTCAASGSIFGHYAMGLSRHAPGKDRELVAAISASTGRTYNADSVKGRFTISRDNAKNPVYLQMNSLKPEDTAFYYCAVRVHWTIWDYYYWGQGTQVTVSS”, the “polyreactivity (PSR sort gate)” value is “high polyreactivity”.

“QVQLVESGGGLVQAVSSLRLSCAASGYIFDRNAMGWYRRAPGKERELVAAITKRGGITYYADSVKGRFTISRDNAKNTVYLQMNSLKPEDTAVYYCAAKTLYNSGTQDRAMGYWGQGTQVTVSS”: the “polyreactivity (PSR sort gate)” value is “high polyreactivity”.

With “QVQLVESGGGLVQEGGSLLLSCDASGFTFAVYAMGWYRQAPGKERELVAAITTSGTRTYNADSVKGRFTISRDNAKNTVYLQMNSLKPEDTAVYYCAAVVFRQWPEFDYWGQGTQVTVSS”, the “polyreactivity (PSR sort gate)” value is “low polyreactivity”.

Turning to “QVQLVESGGGLVQEGGSLLLSFAASGSTFGYYAMGWYRQAPGKEREFVAAISDSGDGTYYADSVKGRFTISRDNEKNTVYLQMNSLKQEDTAVYYCAAEAPYYFGWWYGYKYDSWGQGTQVTVSW”, the “polyreactivity (PSR sort gate)” value is reported as “high polyreactivity”.

On to “QVQLVESGGGLVQEGGSLRLICAASGFTFGAHGMGWYRQAPGKERELVAANNSRGSRTYYADSGKGRFTISRDNPKNTVFFQMNSLQPDDTAVYYCAADYYAFKFGRFDYWGHGTQVTVSS”, for which the “polyreactivity (PSR sort gate)” value was “high polyreactivity”.

Take “QVQLVESGGGLVQEGGSLRLICAASGRIFRYYAMGWYRQAPGKERELVASITYSGGRTNYADSVKGRFTISRDNAKNTVYVQMNSLKPEDTAVYYCNAAYVYYYPHYRYAPTAVDYDYWGQGTQVTVSS”: the “polyreactivity (PSR sort gate)” value is reported as “low polyreactivity”.

Consider “QVQLVESGGGLVQEGGSLRLRCAASGRTFPINAMGWYRQAPGKERELVASIRWTDGTTYYADSVKGRFTISRDTAKNTVYLQMNSLKPEDTAVYYCAADAEGSASKYVYWGQGTQVTVSS”, for which the “polyreactivity (PSR sort gate)” value is reported as “low polyreactivity”.

For the sequence “QVQLVESGGGLVQEGGSLRLSCAAAGIIFIAYAMGWYREAPGKERELVADISIGGSTNYADSVKGRFTISRDNAKNTVYLQMTSQKPEDTAVYYCNAGGGFYGSTVEHDYWGQGTQVSVSS”, the “polyreactivity (PSR sort gate)” value was “low polyreactivity”.

For the sequence “QVQLVESGGGLVQEGGSLRLSCAASGFIFYRYTKGWYRQAPGKERELVAGISSRGTRTYYADSVKGRFTISRDNAKNTVYLQMNSLKPEDNAVYYCAKVDGSKRYNYWGQGTQVTVSS”, the “polyreactivity (PSR sort gate)” value is on record as “high polyreactivity”.

On to “QVQLVESGGGLVQEGGSLRLSCAASGFTFDDYAMGWYRQAPGKERELVATITNSDSSTYYADSVKGRFTISRDNEKNTFYLQMNSLQPVDTAVYYCAADGRYAYGYNHWGHGTQVTVSS”, for which the “polyreactivity (PSR sort gate)” value is “low polyreactivity”.

Consider “QVQLVESGGGLVQEGGSLRLSCAASGFTYYHYAMGWYRHAPGKERELVAAITWSGGDTYYADSVKGRFTISRDNAKNTVYLQMNSLKPDDTAVYYCNADDPPGARYFDSFDYRGDYWGQGTQVTVSS”, for which the “polyreactivity (PSR sort gate)” value was “low polyreactivity”.

In the case of “QVQLVESGGGLVQEGGSLRLSCAASGIIFGPYVMGWYRQAPGKERELVATISRTGDTYYADSVKGRFTISRDNAKNTVYLQMNSVKPEDTAVYYCNTQDHGYGFTMDYWGQGTQVTVSS”, the “polyreactivity (PSR sort gate)” value is reported as “low polyreactivity”.

On to “QVQLVESGGGLVQEGGSLRLSCAASGIIHYYYVMGWYRPAPGKERELVAAINRSGTATYYADSVKGRFTISRDNAKNTVYFQMNSLIPEDTAVYYCAADVRWRYYWGQGTQVTVSS”, for which the “polyreactivity (PSR sort gate)” value was “high polyreactivity”.

As to “QVQLVESGGGLVQEGGSLRLSCAASGITFGRYAMGWYRQAPGKERELVAAITTRGGSTYYADSVKGRFTISRDNAKNTVYLQMNSLKPEDTAVYYCAARVPGVSVKNDYCGQGTQVTVSS”, the “polyreactivity (PSR sort gate)” value was “high polyreactivity”.

Consider “QVQLVESGGGLVQEGGSLRLSCAASGITFSYYAMGWYREAPGKEREWVATIRSSGGSTYYADSVKGRFTISRENAKNTVYLQMNSQKPEDTAVYYCAVRLWFDYNYWGQGTQVTVSS”, for which the “polyreactivity (PSR sort gate)” value was “low polyreactivity”.

Values taken from the nanobody polyreactivity screen of Harvey et al. (2022).
